This note sets out measurements from paper PMC11371640, “Structural deficits in key domains of Shank2 lead to alterations in postsynaptic nanoclusters and to a neurodevelopmental disorder in humans” (Molecular Psychiatry, 2022).

As usually defined, the Kd is the constant that tells how readily two partners part at equilibrium.

B1: His6-SUMO-tagged SH3 to PDZ domains of Shank2 (R520-D727), WT [not stated (human or rat cDNA cloned)] / synthetic peptide of the complete PDZ ligand of GKAP (last 15 amino acids of GKAP/SAPAP1) [not stated] (parent complex)
chain 1: RKLYSAVPGRLFVAVKPYQPQVDGEIPLHRGDRVKVLSIGEGGFWEGSARGHIGWFPAECVEEVQCKPRDSQAETRADRSKKLFRHYTVGSYDSFDTSSDCIIEEKTVVLQKKDNEGFGFVLRGAKADTPIEEFTPTPAFPALQYLESVDEGGVAWQAGLRTGDFLIEVNNENVVKVGHRQVVNMIRQGGNHLVLKVVTVTRNLDPDD
chain 2: ADSIEIYIPEAQTRL

In one assay the parent is B1. The assay can be described thus: ITC; parent: 319 nM. (In general: Isothermal titration calorimetry measures the heat released or taken up as one component is titrated into another.)
On to chain 1 S91Y, for which the Kd was determined as 910 nM.

Turning to chain 1 V198F, the dissociation constant (Kd) was 848 nM.

As for chain 1 N171S, the Kd stood at 411 nM.

The variants in the next assay derive from B1. Description: ITC; parent: 320 nM.
For chain 1 G124R, the dissociation constant (Kd) turned out to be 22500 nM.

The next assay covers variants of B1. The assay can be described thus: ITC; parent: 319 nM. The source holds these as a separate data set.
Consider chain 1 G124R, for which the Kd was determined as 22000 nM.
